The values below come from the RNAGym collection of RNA variant scans (doi:10.1073/pnas.2313332121).

To fix the notation:
B1: TPR 5TU (parent)
chain: GGAUCUUCUCGAUCUAACAAAAAAGACAAAUCUGCCACAAAGCUUGAGAGCAUCUUCGGAUGCAGAGGCGGCAGCCUUCGGUGGCGCGAUAGCGCCAACGUUCUCAACUAUGACACGCAAAACGCGUGCUCCGUUGAAUGGAGUUUAUCAUG

Fewer inactive variants are shown than the library holds.

This series covers variants of B1. Description: polymerase ribozyme fitness, log enrichment relative to wild type (log ratio); higher = more active; in vitro selection for triplet polymerase activity. Summed up: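 Each subunit of a heterodimeric triplet polymerase ribozyme was mutagenized into a library by PCR, transcribed, and subjected to one round of in vitro selection, run in triplicate. Libraries were annealed with a biotinylated primer, the partner subunit and triplets, incubated frozen at −7 °C, and extended constructs were gel-excised, captured on streptavidin beads and recovered by RT-PCR. Input and output libraries were sequenced on Illumina, keeping genotypes with ≥10 input reads and ≥1 read per output. Fitness is log base 2 of genotype enrichment divided by wild-type enrichment, from inverse-variance-weighted replicate averages.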
Take A26G C99U: the “polymerase ribozyme fitness (log ratio)” value is -3.69.

Take C27A G59A C85U U134A: the “polymerase ribozyme fitness (log ratio)” value is ≤ -4.2.

As for C27G A37C A47C C87G A115C, the “polymerase ribozyme fitness (log ratio)” value is ≤ -4.2.

Take A26U G42U: the “polymerase ribozyme fitness (log ratio)” value is ≤ -4.2.

As to A26U G59A C87G, the “polymerase ribozyme fitness (log ratio)” value was ≤ -4.2.

As for A26G U53A G88U G92U C118A A147G, the “polymerase ribozyme fitness (log ratio)” value was ≤ -4.2.

Consider C27G, for which the “polymerase ribozyme fitness (log ratio)” value is -3.12.

In the case of C27A, the “polymerase ribozyme fitness (log ratio)” value is -2.95.

Consider A26C U44A U55G G86A G88C, for which the “polymerase ribozyme fitness (log ratio)” value was ≤ -4.2.

As to A26C C27U, the “polymerase ribozyme fitness (log ratio)” value is -2.8.

In the case of A26C C96U G124A, the “polymerase ribozyme fitness (log ratio)” value was -1.67.

On to A26C C75U G92C, for which the “polymerase ribozyme fitness (log ratio)” value was ≤ -4.2.

A26C A52C U53A: the “polymerase ribozyme fitness (log ratio)” value was ≤ -4.2.

Take A26U G48C A49U A64C U90G A137G: the “polymerase ribozyme fitness (log ratio)” value was -4.11.

As to G25U C35G A40G A47U A91C A107G G133C, the “polymerase ribozyme fitness (log ratio)” value was ≤ -4.2.

On to A26G A40C C63U G80U G92A G126U A142U, for which the “polymerase ribozyme fitness (log ratio)” value was ≤ -4.2.

As for A26G U55A, the “polymerase ribozyme fitness (log ratio)” value was -2.03.

G25U G50C C76A C87A U139G G141C: the “polymerase ribozyme fitness (log ratio)” value is -4.02.

With A26C U55A C75A G80C G94A C105A, the “polymerase ribozyme fitness (log ratio)” value was ≤ -4.2.

On to A26C G100U, for which the “polymerase ribozyme fitness (log ratio)” value was -4.

Take A26G A91U U104G A122C: the “polymerase ribozyme fitness (log ratio)” value is ≤ -4.2.

Regarding A26U A30U A37C U61A A66C G67C C69U C87A C105A C125U, the “polymerase ribozyme fitness (log ratio)” value is ≤ -4.2.

Take A26C C38G G68C C76U G84U U139G: the “polymerase ribozyme fitness (log ratio)” value was ≤ -4.2.

On to A26C C38U C69A U77G G88U, for which the “polymerase ribozyme fitness (log ratio)” value was ≤ -4.2.

For the variant A26C G92C U104C C108U A115C, the “polymerase ribozyme fitness (log ratio)” value was ≤ -4.2.

Turning to C27A U44A G48A, the “polymerase ribozyme fitness (log ratio)” value is ≤ -4.2.

With C27A A49U C87A U134C G141A, the “polymerase ribozyme fitness (log ratio)” value was ≤ -4.2.

Consider A26G A49G C57U G59A C72A, for which the “polymerase ribozyme fitness (log ratio)” value is ≤ -4.2.

In the case of A26U A49U G59U, the “polymerase ribozyme fitness (log ratio)” value was ≤ -4.2.

On to C27A U82G C87G G94A U135A, for which the “polymerase ribozyme fitness (log ratio)” value was ≤ -4.2.

Regarding G25U A49C G68U G84A C87G A89U G94C C114A U148G, the “polymerase ribozyme fitness (log ratio)” value is ≤ -4.2.

Consider A26U C72G G81A G86C, for which the “polymerase ribozyme fitness (log ratio)” value was ≤ -4.2.

Turning to A26C G81A C85G C87A G141U C149G, the “polymerase ribozyme fitness (log ratio)” value was ≤ -4.2.

Consider A26U C75U, for which the “polymerase ribozyme fitness (log ratio)” value was -3.23.

Take G25U G59A G62C C116U U145A: the “polymerase ribozyme fitness (log ratio)” value was -1.79.

On to G25U C38U A47U U56G U61A G65C C79G C103G U134A, for which the “polymerase ribozyme fitness (log ratio)” value is ≤ -4.2.

With A26U C96U, the “polymerase ribozyme fitness (log ratio)” value was -1.62.

For A26U C36A G68C G86U G88C, the “polymerase ribozyme fitness (log ratio)” value is ≤ -4.2.

Regarding A26C A30U C79U, the “polymerase ribozyme fitness (log ratio)” value was ≤ -4.2.

A26U U78A C96A C116U U146C: the “polymerase ribozyme fitness (log ratio)” value was ≤ -4.2.

With A26G C32U U33G A49U A91U, the “polymerase ribozyme fitness (log ratio)” value was ≤ -4.2.

With A26G G48A, the “polymerase ribozyme fitness (log ratio)” value was ≤ -4.2.

For the variant C27A A106C A113U C125A, the “polymerase ribozyme fitness (log ratio)” value is ≤ -4.2.

Take C27A U61A G86A: the “polymerase ribozyme fitness (log ratio)” value was ≤ -4.2.

As to A26U U104C G126C U146A, the “polymerase ribozyme fitness (log ratio)” value is -2.67.

Turning to G25U G46A C57U C69A G128U A138U, the “polymerase ribozyme fitness (log ratio)” value is ≤ -4.2.

Consider A26C U82A A137G, for which the “polymerase ribozyme fitness (log ratio)” value was -2.93.

A26U G62A: the “polymerase ribozyme fitness (log ratio)” value is -1.51.

As to A26U C32G G86A C105U, the “polymerase ribozyme fitness (log ratio)” value is ≤ -4.2.

As for A26C A73G C105U U146G, the “polymerase ribozyme fitness (log ratio)” value is -3.66.

As for C27A A52G G128U C129U C131G A147U, the “polymerase ribozyme fitness (log ratio)” value was ≤ -4.2.

Regarding G25U G83A A119C, the “polymerase ribozyme fitness (log ratio)” value was -2.78.

In the case of A26C U53A U56A C114U, the “polymerase ribozyme fitness (log ratio)” value was -3.79.

Consider C27A U45A C87U A138C, for which the “polymerase ribozyme fitness (log ratio)” value is ≤ -4.2.

With A26C A30C U45A C54G G92A U104G A147G, the “polymerase ribozyme fitness (log ratio)” value is ≤ -4.2.

As to C27G A28C A41U A91G C93U, the “polymerase ribozyme fitness (log ratio)” value is ≤ -4.2.

For the variant A26C C32G C57G, the “polymerase ribozyme fitness (log ratio)” value was ≤ -4.2.

Consider A26U G86A, for which the “polymerase ribozyme fitness (log ratio)” value was -2.74.

Consider A26C C36A U44G U55A G140C, for which the “polymerase ribozyme fitness (log ratio)” value is -4.19.

With A26C C35U U44A C57U G58U C85A, the “polymerase ribozyme fitness (log ratio)” value is ≤ -4.2.

In the case of G25U C85A, the “polymerase ribozyme fitness (log ratio)” value was -3.88.

Regarding G25U C85G, the “polymerase ribozyme fitness (log ratio)” value was -3.79.

For A26U G46U G48U G81U G83C C99G, the “polymerase ribozyme fitness (log ratio)” value is ≤ -4.2.

On to C27A C38G C43U C85U G133A U144C, for which the “polymerase ribozyme fitness (log ratio)” value is ≤ -4.2.

As for G25U U55A C72G C93G G140A, the “polymerase ribozyme fitness (log ratio)” value was ≤ -4.2.

In the case of G25U G83A, the “polymerase ribozyme fitness (log ratio)” value was -3.4.

G25U G84A C131U G136A U144G: the “polymerase ribozyme fitness (log ratio)” value is -1.89.

Turning to C27A C35A G84U C103G, the “polymerase ribozyme fitness (log ratio)” value was ≤ -4.2.

For the variant A26C A49C, the “polymerase ribozyme fitness (log ratio)” value is ≤ -4.2.

Consider G25U C85U U101C, for which the “polymerase ribozyme fitness (log ratio)” value is -2.41.

For the variant A26C G117C, the “polymerase ribozyme fitness (log ratio)” value is -2.51.

As for A26U A49U C87A U134G, the “polymerase ribozyme fitness (log ratio)” value is ≤ -4.2.

Turning to C27A C75U C93G A115U, the “polymerase ribozyme fitness (log ratio)” value was ≤ -4.2.

On to C27A C79A G84A G86U, for which the “polymerase ribozyme fitness (log ratio)” value was ≤ -4.2.

Regarding A26U G42C C93G A115U, the “polymerase ribozyme fitness (log ratio)” value was ≤ -4.2.

Consider C27A A28U C38U A39U A47U, for which the “polymerase ribozyme fitness (log ratio)” value is ≤ -4.2.

As for A26U A98G U127G, the “polymerase ribozyme fitness (log ratio)” value was ≤ -4.2.

A26C G65A C79A A89U A97C G117A: the “polymerase ribozyme fitness (log ratio)” value is ≤ -4.2.

In the case of C27A G74A C76G G86C G128A C129U U144C, the “polymerase ribozyme fitness (log ratio)” value was ≤ -4.2.

For the variant G25U C85U C116G A120U G141C, the “polymerase ribozyme fitness (log ratio)” value was ≤ -4.2.

Regarding A26U C51U A64U C125U, the “polymerase ribozyme fitness (log ratio)” value is ≤ -4.2.

Consider G25U G42A A49C G80A C85G C95U C103A, for which the “polymerase ribozyme fitness (log ratio)” value was ≤ -4.2.

For C27A G58A C76G C99U U101G, the “polymerase ribozyme fitness (log ratio)” value was ≤ -4.2.

Turning to A26G C35U, the “polymerase ribozyme fitness (log ratio)” value was -3.06.
